The values that follow come from the RNAGym collection of RNA variant scans (doi:10.1073/pnas.2313332121).

To fix the notation:
B1: TPR t1 (parent)
chain: GACCAAUCUGCCCUCAGAGCUCGAGAACAUCUUCGGAUGCAGAGGAGGCAGGCUUCGGUGGCGCGAUAGCGCCAACGUCCUCAACCUCCAAUGCAUCCCACCACAUGAUGAUGCCUGAAGAGCCUUGGUUUUUUG

The variants in this data set derive from B1. The data set is described as follows: polymerase ribozyme fitness, log enrichment relative to wild type (log ratio); higher = more active; in vitro selection for triplet polymerase activity. An outline of the steps: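 In triplicate, a single round of in vitro selection was run on each mutant library, PCR-built and transcribed, covering one subunit of a heterodimeric triplet polymerase ribozyme. Frozen incubation at −7 °C followed annealing with a biotinylated primer, partner subunit and triplets, and extended constructs were then gel-excised, streptavidin-captured and taken through RT-PCR. Fitness is the logarithm of genotype enrichment over wild-type enrichment, from inverse-variance-weighted replicate averages of Illumina-sequenced inputs and outputs. […] only genotypes with ≥10 input reads and ≥1 read per output were kept.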
As to A29C G39A A50U G52A U112C, the “polymerase ribozyme fitness (log ratio)” value is -5.09.
Then G48U U112C A118U, with 0.638; and U9G G10A U14G A46G G48A A66G, with -2.94; and G39U G77C, with -1.76.
Then C8G G39C C62A, with -0.386.
In the case of A5C G48A it was -1.85.
For the variant C28G G42C G52C G69U G107A A108G C124G, the “polymerase ribozyme fitness (log ratio)” value was -7.26.
In the case of G51A G93A it was -3.45.
Then C20U A27G C72A C82U A84G U116C, with -7.5; and C102A C115G, with -3.72; and G25U C34G G36C C97A U112G, with -6.79.
Then G42A C85G C86G U129C, with -4.79; and A41C G69C A83G, with -3.72.
Consider A41U A43U C72G G77C G93A C124G U131A, for which the “polymerase ribozyme fitness (log ratio)” value is -0.181.
A5U G44A C56A C124A G128U U132G U133C: the “polymerase ribozyme fitness (log ratio)” value is -2.5.
Consider A2C C89G, for which the “polymerase ribozyme fitness (log ratio)” value is -3.68.
Turning to C64U C82U U109A G120U, the “polymerase ribozyme fitness (log ratio)” value was -6.78.
In the case of C102A C123G it was -0.232.
Turning to C22U C70U, the “polymerase ribozyme fitness (log ratio)” value was -4.14.
Then A46U U130G, with -1.6; and C115A G120U, with -0.0245; and U59A G77A A83C U92A C102U U109C C114U, with -6.72.
Then U7G G77A A83C, with 0.167; and A27G C56A A74C U87A U112A, with -0.205.
For the variant A6C C88G C115G, the “polymerase ribozyme fitness (log ratio)” value was -4.52.
In the case of G45A C76U C86G it was -3.23; in that of C8A U30A A46C U109G A119U, -6.8.
In the case of C13A C88A it was -2.19.
Consider C56A G60A C101A, for which the “polymerase ribozyme fitness (log ratio)” value is -1.49.
On to A18C C72U G113C, for which the “polymerase ribozyme fitness (log ratio)” value is -3.97.
In the case of C40U A84C U112A it was 0.737; in that of A43U A46U U106A U131A, -2.17; in that of U38C U54A G77A U96A G120A, -4.19.
For the variant G48U G71A C123A U126A, the “polymerase ribozyme fitness (log ratio)” value was -2.04.
Regarding G52U G63A G120U, the “polymerase ribozyme fitness (log ratio)” value was -1.08.
Take G10A G36C A50G U92G: the “polymerase ribozyme fitness (log ratio)” value is -3.51.
In the case of C40A G45U G122U it was -2.79.
In the case of A6C C114U it was -2.3.
As for C8G G47C C82U, the “polymerase ribozyme fitness (log ratio)” value was -1.06.
Then U21C C22A A43C, with -4.05.
As for U112A U130C, the “polymerase ribozyme fitness (log ratio)” value turned out to be 1.38.
With C40U A41C, the “polymerase ribozyme fitness (log ratio)” value was -2.44.
Then U7A U9C, with 0.526; and G10A A26G A103U C104A A121C, with -0.666; and C70U C101A U106C U133A, with -0.685.
In the case of G63C A90C it was -2.06; in that of C8G C15U G69C A90U, -3.02.
Take C3A C8G A37G G93A: the “polymerase ribozyme fitness (log ratio)” value is -0.343.
In the case of C15A C70U G93C C124G G128C it was -4.17; in that of A2C C40G C56G C72G C124U, -4.17; in that of C8G A27U A46C G69U U78A C114U, -4.5.
In the case of U7A G35C A41C C64U C79U G113U it was -7.12; in that of C64A C82G A121C, -7.17; in that of A24C A27G, -6.86.
In the case of C3U G47A C62U A105U A118G it was -3.83.
Turning to G47C C49A G63U U78C C123G C124U, the “polymerase ribozyme fitness (log ratio)” value was -4.24.
Consider C22U C72A A100C, for which the “polymerase ribozyme fitness (log ratio)” value is -4.76.
Take C53G G58C C62A C85U G113A: the “polymerase ribozyme fitness (log ratio)” value was -2.93.
For A83U G127U, the “polymerase ribozyme fitness (log ratio)” value is -1.08.
Then U33C G52A G58C G69A C104U U109A A111G U112A, with -6.93; and C34A C72U C85A G113A, with -5.11; and U55C G58A G122A, with -0.971.
Then C11G G47A, with -0.824.
In the case of G39A G61C C72U G117A it was -1.82; in that of A5C G39U C64A A68U U116C G127U, -5.8; in that of C22G A37C U92C G120C, -4.95.
Turning to A24G G47C A90U, the “polymerase ribozyme fitness (log ratio)” value was -4.32.
Turning to A18C G69A, the “polymerase ribozyme fitness (log ratio)” value is -6.17.
For U30C C56U, the “polymerase ribozyme fitness (log ratio)” value was -2.08.
For the variant G48A C82A, the “polymerase ribozyme fitness (log ratio)” value was -1.42.
Then G44C G47C C49U C97A C123U, with -6.09; and C20G U133G, with -3.81.
In the case of U7C C56A G135U it was -1.85; in that of C22A G44C, -4.8.
Consider G36U C101A, for which the “polymerase ribozyme fitness (log ratio)” value is -2.53.
U54A C56G G61A: the “polymerase ribozyme fitness (log ratio)” value is -0.683.
In the case of U21G C56U A111G U112G it was -0.871.
Take C12U C20A C28U A37G G42A G45U A46U G48A C82U G110A A111U A119G: the “polymerase ribozyme fitness (log ratio)” value is -4.23.
On to C8U G71U U78C C98U A119U, for which the “polymerase ribozyme fitness (log ratio)” value was -1.03.
In the case of C49A U81A U87G, the “polymerase ribozyme fitness (log ratio)” value was -0.13.
With A83U U133G, the “polymerase ribozyme fitness (log ratio)” value is -0.873.
Then G44C C98U, with -2.37; and A29G A37G C40U G61C G127U, with -4.48; and G45U G93U G120A, with -0.614.
In the case of G10A C12G C22G C104G it was -5.13; in that of C20U A37G C102A, -3.43; in that of G63U G128A, -3.29.
For the variant C49A C64U A66C C80A G117A, the “polymerase ribozyme fitness (log ratio)” value is -7.53.
On to C3A C13U C62U G113U, for which the “polymerase ribozyme fitness (log ratio)” value was -4.41.
Then C15U G48A G57A C86A, with -3.37.
In the case of C40A A46U C114A it was -4.55.
On to G19U C123A, for which the “polymerase ribozyme fitness (log ratio)” value is -2.59.
Then C11A G45A G60A G113C, with -4.47.
For G93A G128C, the “polymerase ribozyme fitness (log ratio)” value was -2.72.
For the variant C79A C80A C88A, the “polymerase ribozyme fitness (log ratio)” value is -5.16.
Take C8U A26U A83C G127C U133A: the “polymerase ribozyme fitness (log ratio)” value was -5.14.
A46U G52C U87G G135U: the “polymerase ribozyme fitness (log ratio)” value is -1.01.
Then C56U A90U, with -0.55; and G25A C64U, with -4.8.
Take A5U C12A A90G: the “polymerase ribozyme fitness (log ratio)” value is -0.323.
Then C70U U92G A118G, with -3.55.
Then G71A G127A, with -2.33; and U7G G77U, with 0.185; and C12U U112G, with 0.735.
Consider G19C G63A U87C, for which the “polymerase ribozyme fitness (log ratio)” value was -3.24.
In the case of G65C C123G it was -3.83; in that of A27U C49G U54C, -3.58; in that of G51A A83C, -3.73.
Then U21A C49A C73A C115A U130G, with 0.139; and C4G U9A C62G U92A A95G U112C G113A, with -5.53.
Then G60U C89A A118G, with -1.39; and A26G A46C G52C, with -4.5.
As for C72A A95G C97G C104A A118U G127C, the “polymerase ribozyme fitness (log ratio)” value is -5.66.
Then A27U C72U U106G U129A G135U, with -5.91.
In the case of A6U G58C G63U C64A A119U it was -6.07; in that of A50U C114A, -3.11.
With G77A A90G, the “polymerase ribozyme fitness (log ratio)” value is -0.174.
In the case of C12U A18C A29G C82U U92A it was -3.51.
Turning to G48C A91C U92G G120A C124U U130C, the “polymerase ribozyme fitness (log ratio)” value is -1.63.
Turning to C40U C99A, the “polymerase ribozyme fitness (log ratio)” value is -4.45.
Consider A16U C56U U87A A103U U112A, for which the “polymerase ribozyme fitness (log ratio)” value was -4.76.
In the case of C88A C94G U112C G120C, the “polymerase ribozyme fitness (log ratio)” value is -1.09.
Turning to A2G G48U C80U U130C, the “polymerase ribozyme fitness (log ratio)” value was -2.35.
With G48A C73A, the “polymerase ribozyme fitness (log ratio)” value was -0.973.
In the case of A29U A43C G44U C53G A111U U134A it was -0.68.
With U59C C123G, the “polymerase ribozyme fitness (log ratio)” value worked out at 1.95.
Then U106G G117C, with -1.59; and A16C C72A, with -3.3; and C20U A95C U129A, with -2.94.
In the case of C15A U78C, the “polymerase ribozyme fitness (log ratio)” value was -2.38.
In the case of G17C U129A it was -5.13; in that of C62A C82U A121U U125A, 1.19.
Regarding A29G A46U G69U C86U, the “polymerase ribozyme fitness (log ratio)” value is -2.23.
Then U14G U130A, with -3.36; and C8U A18C A41U A50G C72G C101U, with -3.51; and C3U G57U, with -0.67.
In the case of C89A A111U G113A it was -5.69.
For C56G C114A, the “polymerase ribozyme fitness (log ratio)” value was -2.
Then U92G G93C, with -3.76; and G113C C124U G127C, with -3.7.
In the case of C86G A111G G135A it was -0.134; in that of C12A G19A C22G A27C U30A C40A A46C C56A C82A U92G U109G, -8.5.
In the case of U9C C114A U129C it was -1.92; in that of G17A G61A C114G C124A, -3.95.
As for G71A A84C, the “polymerase ribozyme fitness (log ratio)” value is -0.48.
Turning to U87G U106G, the “polymerase ribozyme fitness (log ratio)” value is -1.41.
Take A41U G61U: the “polymerase ribozyme fitness (log ratio)” value was -0.703.
Then G10C G113C, with -2.27; and A26G G60U G77A A84C C102G U112A U116C, with -5.99.
Then C56G C88A C115U A119G, with 1.4; and A46G C97U, with -1.05.
Then G60U G93A, with -0.449; and C15A C40A, with -3.27.
With C56A C88U C101U U106G C123A, the “polymerase ribozyme fitness (log ratio)” value was -1.58.
Then C8G U59G C82U C85A U126C, with -1.16.
In the case of C49A U112A it was 1.49.
On to C12G G113A, for which the “polymerase ribozyme fitness (log ratio)” value is -0.4.
Turning to G10A U59C A66C A68G U106G A121U, the “polymerase ribozyme fitness (log ratio)” value was -4.4.
Take C12U C49G G61C: the “polymerase ribozyme fitness (log ratio)” value was -1.89.
Then G110C U129G, with -5.19; and C101U U106A, with -0.286.
Then C11A C56A A100C, with -3.86.
Regarding G44C C72A, the “polymerase ribozyme fitness (log ratio)” value was -0.169.
For G44U C97G G113A, the “polymerase ribozyme fitness (log ratio)” value was -5.15.
In the case of A18C A37G G110C it was -6.11.
Consider A29G G58U U59A, for which the “polymerase ribozyme fitness (log ratio)” value was -1.29.
Then G57A C82U A105G G120U, with -4.95.
